Laboratory results taken from article PMC10963267 (2023).
Changes are numbered by the printed parent chain. Names and notes keep the numbering of the source.

B1: anti-HER2 scFv G98A, ribosome-displayed on the flow cell (scFv, V domains shown)
VH: QVQLVQSGAEVKKPGESLKISCKGSGYSFTSYWIAWVRQMPGKGLEYMGLIYPGDSDTKYSPSFQGQVTISVDKSVSTAYLQWSSLKPSDSAVYFCARHDVAYCSSSNCAKWPEYFQHWGQGTLVTVSS
VL: QSVLTQPPSVSAAPGQKVTISCSGSSSNIGNNYVSWYQQLPGTAPKLLIYGHTNRPAGVPDRFSGSKSGTSASLAISGFRSEDEADYYCASWDYTLSGWVFGGGTKLTVL
B2: anti-HER2 Fab G98A (Fab, V domains shown)
VH: B1 VH
VL: B1 VL
B3: HER20016 (peptide)
chain: HDVGPCDTSTCAKWPEYFQH
B4: HER20010 (peptide)
chain: HDVAYCSSSRCLDWPEYFQH
B5: HER20023 (peptide)
chain: HDVGYCDTESCEKWPEYFQH
B6: HER20017 (peptide)
chain: HDVGQCDSSNCAAWPEYFQH
B7: HER20022 (peptide)
chain: HDVGYCDTPTCATWPEQFDH
B8: HER20012 (peptide)
chain: HDVGYCSSHRCETWPEYFQH
B9: HER20024 (peptide)
chain: HDVGQCDSSNCETWPEYFQH
B10: HER20018 (peptide)
chain: HDVGYCSESACQQWPEYFQH
B11: HER20015 (peptide)
chain: HDVGYCDTPTCDKWPEYFQH
B12: HER20021 (peptide)
chain: HDTGYCDTPTCAKWPEYFQH
B13: HER20020 (peptide)
chain: HDVGYCDTPTCDKWPEYFTH
B14: HER20011 (peptide)
chain: HDVGLCSSSNCAKWPEYFQH
B15: HER20026 (peptide)
chain: HDVGYCDSSMCQMWPEYFQH
B16: HER20009 (peptide)
chain: HDVAYCSSSRCLEWPEYFQH
B17: HER20025 (peptide)
chain: HDVGYCDTPTCNKWPEYFQH
B18: HER20014 (peptide)
chain: HDVAYCDDPTCAYWPEYFQH
B19: HER20002 (peptide)
chain: HDVGYCSSSNCAKWPEYFQH
B20: HER20008 (peptide)
chain: HDVAYCDSDRCAKWPEYFQH
B21: HER20013 (peptide)
chain: HDVGYCSTSRCLTWPEYFQH
B22: HER20019 (peptide)
chain: HDVGQCDSSNCATWPEYFQH
B23: HER20006 (peptide)
chain: HDVGWCTSSNCAKWPEYFQH
B24: HER20007 (peptide)
chain: HDVGYCMSSNCAKWPEYFQH
B25: HER20005 (peptide)
chain: HDVAYCDTPTCAKWPEYFQH
B26: HER20004 (peptide)
chain: HDVGQCDSSNCAKWPEYFQH
B27: HER20003 (peptide)
chain: HDVAYCSSSRCLTWPEYFQH
B28: anti-HER2 Fab HER20006 (Fab, V domains shown)
VH: B1 VH with A102G, Y103W, S105T
VL: B1 VL
B29: anti-HEL nanobody C2 (VHH)
VHH: QVQLQESGGGLVQAGGSLRLSCAASGNISADASMGWYRQAPGKEREFVAAIARGATTYYADSVKGRFTISRDNAKNTVYLQMNSLKPEDTAVYYCAVDQYDVTKRYIGHIYWGQGTQVTVSS
B30: anti-HEL nanobody C1 (VHH)
VHH: QVQLQESGGGLVQAGGSLRLSCAASGSIFWAGYMGWYRQAPGKEREFVAAIDYGANTYYADSVKGRFTISRDNAKNTVYLQMNSLKPEDTAVYYCAVDRQPYYRRDNSHLYWGQGTQVTVSS
B31: anti-HEL nanobody M15, ribosome-displayed on the flow cell (VHH)
VHH: QVQLQESGGGLVQAGGSLRLSCAASGTISSQKLMGWYRQAPGKEREFVAAINDGATTNYADSVKGRFTISRDNAKNTVYLQMNSLKPEDTAVYYCAAYYDVRGYYWGTFGYWGQGTQVTVSS
B32: anti-HEL nanobody M5, ribosome-displayed on the flow cell (VHH)
VHH: QVQLQESGGGLVQAGGSLRLSCAASGSIFYYTDMGWYRQAPGKEREFVASIGYGGITYYADSVKGRFTISRDNAKNTVYLQMNSLKPEDTAVYYCAVQRSFESYGYWGHVYWGQGTQVTVSS
B33: anti-HEL nanobody M6, ribosome-displayed on the flow cell (VHH)
VHH: B32 VHH with F29S, Y30R, Y31D, T32P, G52S, Y53G, G55T, I56T
B34: anti-HER2 Fab HER20010 (Fab, V domains shown)
VH: B1 VH with N108R, A110L, K111D
VL: B1 VL
B35: anti-HER2 Fab HER20007 (Fab, V domains shown)
VH: B1 VH with A102G, S105M
VL: B1 VL
B36: anti-HER2 Fab HER20011 (Fab, V domains shown)
VH: B1 VH with A102G, Y103L
VL: B1 VL
B37: anti-HER2 Fab HER20009 (Fab, V domains shown)
VH: B1 VH with N108R, A110L, K111E
VL: B1 VL
B38: anti-HER2 Fab HER20015 (Fab, V domains shown)
VH: B1 VH with A102G, S105D, S106T, S107P, N108T, A110D
VL: B1 VL
B39: anti-HER2 Fab HER20008 (Fab, V domains shown)
VH: B1 VH with S105D, S107D, N108R
VL: B1 VL

target: T1, human epidermal growth factor receptor 2 (HER2), biotinylated (human, UniProt P04626 23-652, biotin); experiment: not given

Row | Kd [nM] | Binder
1 | 24 | B1

target: T1, human epidermal growth factor receptor …; experiment: SPR

Row | Kd [nM] | Binder
2 | 320 | B2

target: T2, HER2 extracellular domain (Homo sapiens, UniProt P04626); experiment: flow

Row | apparent Kd (screen) [nM] | Binder
3 | 106 | B3
4 | 17.7 | B4
5 | 31.6 | B5
6 | 1350 | B6
7 | 14.8 | B7
8 | 74.2 | B8
9 | 17.9 | B9
10 | 24.4 | B10
11 | 31 | B11
12 | 17.7 | B12
13 | 14.3 | B13
14 | 40.6 | B14
15 | 4.78 | B15
16 | 11.2 | B16
17 | 8.78 | B17
18 | 65.9 | B18
19 | 19.4 | B19
20 | 44.5 | B20
21 | 10 | B21
22 | 19.6 | B22
23 | 151 | B23
24 | 41.1 | B24

target: T2, HER2 extracellular domain; experiment: Octet

Row | Kd [nM] | Binder
25 | 1.41 | B3
26 | 1.06 | B4
27 | 0.578 | B5
28 | 1.46 | B6
29 | 0.183 | B7
30 | 0.591 | B8
31 | 2.26 | B10
32 | 1.86 | B25
33 | 0.2 | B11
34 | 0.215 | B12
35 | 0.294 | B13
36 | 3.44 | B26
37 | 0.465 | B15
38 | 1.04 | B16
39 | 2.88 | B27
40 | 0.996 | B18
41 | 1.65 | B19
42 | 2.68 | B20
43 | 0.79 | B22
44 | 0.85 | B23
45 | 2.08 | B24

target: T1, human epidermal growth factor receptor …; experiment: BLI

Row | Kd [nM] | Binder
46 | 0.85 | B28

target: T3, hen egg lysozyme (HEL), biotinylated (hen, UniProt P00698 19-147, biotin); experiment: BLI
T3 sequence (P00698 19-147): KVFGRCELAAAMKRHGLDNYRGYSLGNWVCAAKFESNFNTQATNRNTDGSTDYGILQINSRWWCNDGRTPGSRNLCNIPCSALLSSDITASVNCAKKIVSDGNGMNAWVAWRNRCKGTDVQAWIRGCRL

Row | Kd [nM] | Binder
47 | 59.8 | B29
48 | 67.4 | B30

target: T3, hen egg lysozyme (HEL), biotinylated; experiment: deep screening KDapp

Row | Kd [nM] | Binder
49 | 11900 | B29
50 | 64.4 | B31
51 | 106 | B32
52 | 63.6 | B33
53 | 11900 | B30

target: T1, human epidermal growth factor receptor …; experiment: BLI; remark: another data set of the same source

Row | Kd [nM] | Binder
54 | 1.06 | B34
55 | 2.08 | B35
56 | 5.25 | B36
57 | 1.04 | B37
58 | 0.2 | B38
59 | 2.68 | B39

target: T1, human epidermal growth factor receptor …; experiment: SPR; remark: another data set of the same source

Row | Kd [nM] | Binder
60 | 320 | B1
